The source of these data is paper PMC7473840, “Identification of a molecular locus for normalizing dysregulated GABA release from interneurons in the Fragile X brain” (Molecular Psychiatry, 2018).

The target of the assay is FMRP (mouse cerebellum) (UniProt P35922). Put plainly: anti-FMRP IP, Kv1.2 blot, peptide competition. The note with it: reference: no peptide (control); sites S440,S441.

On to “Kv1.2 (from UniProt P63141) 250 μM PhosKv436-457 (pS440/pS441) peptide added”, for which the other: reduction of co-IP'd Kv1.2 was determined as 75%.
